# According to patent publication US20210163606A1 (ATYR PHARMA, published 2021):
# T1: human NRP2 variant 2 (hNRP2), untagged, on Expi293 cells (Human, UniProt O60462 23-931)
# T1 construct: Transcript NM_003872 / NP_003863.2; also called Expi293-hNRP2 clonal cells; Human NRP2a (version 2)
# T1 sequence: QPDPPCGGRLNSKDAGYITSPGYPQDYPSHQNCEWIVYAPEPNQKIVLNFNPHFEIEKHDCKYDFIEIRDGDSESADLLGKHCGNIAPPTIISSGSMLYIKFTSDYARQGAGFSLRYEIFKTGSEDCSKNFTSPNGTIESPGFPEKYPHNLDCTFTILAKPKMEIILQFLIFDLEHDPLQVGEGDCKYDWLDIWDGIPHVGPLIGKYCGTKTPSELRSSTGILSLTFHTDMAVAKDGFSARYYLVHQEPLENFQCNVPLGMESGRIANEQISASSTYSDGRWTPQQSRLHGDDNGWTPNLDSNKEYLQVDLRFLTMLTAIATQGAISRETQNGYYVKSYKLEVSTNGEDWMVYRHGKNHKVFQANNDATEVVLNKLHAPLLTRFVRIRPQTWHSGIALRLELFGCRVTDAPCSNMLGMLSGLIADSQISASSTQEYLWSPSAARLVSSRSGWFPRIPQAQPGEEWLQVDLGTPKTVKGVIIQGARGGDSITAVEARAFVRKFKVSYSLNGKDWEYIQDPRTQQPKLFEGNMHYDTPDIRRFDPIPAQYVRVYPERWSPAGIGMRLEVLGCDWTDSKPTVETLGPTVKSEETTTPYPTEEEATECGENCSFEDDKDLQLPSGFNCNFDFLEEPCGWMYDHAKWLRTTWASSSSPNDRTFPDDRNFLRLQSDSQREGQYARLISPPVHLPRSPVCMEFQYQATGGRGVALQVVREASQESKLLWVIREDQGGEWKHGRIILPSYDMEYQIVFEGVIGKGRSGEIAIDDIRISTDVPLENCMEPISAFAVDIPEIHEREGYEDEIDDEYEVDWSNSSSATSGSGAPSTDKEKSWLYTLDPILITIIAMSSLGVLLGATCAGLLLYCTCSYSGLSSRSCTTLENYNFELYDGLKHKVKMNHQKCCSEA
# What was measured:
# [1] = target: T1, human NRP2 variant 2 (hNRP2), untagged, …; experiment: flow cytometry on Expi293-hNRP2 clonal cells
# Procedure: Expi293-hNRP2 clonal cells were collected by centrifugation at 300 g for 5 minutes, and washed twice by DPBS (with calcium and magnesium, ThermoFisher Cat #14040133). Washed cells were added to a 96-well V-bottom plate (ThermoFisher Cat #1424572) at 100,000 cells/well in […] of DPBS added with Zombie Violet viability stain (Biolegend Cat #423114, diluted at 1:500). From this step on, cells were protected from light. Cells were kept at room temperature for 10 min and pelleted down at 300 g for 5 minutes at 4° C. Supernatants containing Zombie Violet were discarded, and without washing, 30 uL of antibodies diluted in the flow wash buffer (FWB, DPBS plus 2% FBS and 0.1% sodium azide to inhibit receptor internalization) were added to the cells. For anti-NRP2 antibody staining on Expi293-hNRP2 clonal cells, in-house human anti-NRP2 antibodies were tested at final concentrations of 0.006-100 nM at 4-fold dilutions. […] Binding was allowed to proceed on ice for 40-60 minutes. Cells were then pelleted at 300 g for 5 minutes at 4° C., supernatants removed, and cells washed twice by adding 150 μL of FWB and centrifuging the cells again in the same conditions. To detect a-NRP2 binding on the cell surface, Cy3-conjugated goat anti-human IgG Fc (Jackson ImmunoResearch Cat #109165098) was added to the cells at a final concentration of 3 μg/mL in 30 μL of FWB. After 30-40 minutes of incubation on ice, cells were pelleted at 300 g for 5 minutes at 4° C. and supernatants removed, and the cells were washed twice as described previously. Cells were then resuspended in FWB before acquisition on the Cytoflex. Gains were set based on staining controls. Cells were collected with typically more than 10,000 events. Cells were then analyzed on FlowJo analysis software by excluding dead cells and gating singlets. The statistical analysis was performed using GraphPad Prism. A four-parameter variable-slope curve was fitted to the data ([agonist] vs. response) using non-linear regression, and the EC₅₀ and r2 for each curve was determined.
# The EC₅₀ of four anti-NRP2 antibodies directed against different domains of NRP2, were measured for binding to Expi293-hNRP2 clonal cells (see Table E1 and FIG. 3).
# [2] = target: T2, cynomolgus monkey NRP2 on transfected Expi293 cells (cynomolgus monkey); experiment: flow cytometry on Cyno NRP2-transfected Expi293 cells
# T2 construct: whole, on cells; Plasmid bought from Origene; transient transfection; also called Cyno NRP2
# Procedure: Binding of a-NRP2 to cynomolgus monkey NRP2-transfected Expi293 cells. Cynomolgus monkey (cyno) NRP2-transfected Expi293 cells were collected by centrifugation at 300 g for 5 minutes, and washed twice by DPBS (with calcium and magnesium, ThermoFisher Cat #14040133).
# Washed cells were added to a 96-well V-bottom plate (ThermoFisher Cat #1424572) at 100,000 cells/well in 50 μL of DPBS added with Zombie Violet viability stain (Biolegend Cat #423114, diluted at 1:500). From this step on, cells were protected from light. Cells were kept at room temperature for 10 min and pelleted down at 300 g for 5 minutes at 4° C. Supernatants containing Zombie Violet were discarded, and without washing, 30 uL of antibodies diluted in the flow wash buffer (FWB, DPBS plus 2% FBS and 0.1% sodium azide to inhibit receptor internalization) were added to the cells. For a-NRP2 staining on Cyno NRP2-transfected Expi293 cells, in-house human anti-NRP2 antibodies were tested at final concentrations of 0.006-100 nM at 4-fold dilutions. For each test, NRP2 over-expression on the cell surface was validated by a-NRP2 staining (10 μg/mL R&D #AF567 a-NRP2) in separate wells. Binding was allowed to proceed on ice for 40-60 minutes. Cells were then pelleted at 300 g for 5 minutes at 4° C., supernatants removed, and cells washed twice by adding 150 μL of FWB and centrifuging the cells again in the same conditions. To detect a-NRP2 binding on the cell surface, Cy3-conjugated goat anti-human IgG Fc or AF647-conjugated donkey anti-goat IgG (Jackson ImmunoResearch Cat #109165098 & 705605147) was added to the cells at a final concentration of 3 μg/mL in 30 μL of FWB. After 30-40 minutes of incubation on ice, cells were pelleted at 300 g for 5 minutes at 4° C. and supernatants removed, and the cells were washed twice as described previously. […] Cells were then analyzed on FlowJo analysis software by excluding dead cells and gating singlets.
# The EC₅₀ of three anti-NRP2 antibodies, each against a distinct domain of NRP2, were measured for binding to Cyno NRP2-transfected Expi293 cells (see Table E2 and FIG. 4).
binder,measurement,setting,value
"aNRP2-10v10 (antibody, V domains shown) VH: EVQLVQSGAEVKKPGATVKISCKVSGFNIKDYYVHWVQQAPGKGLEWMGRIDVEDDETKYAPKFQGRVTITADTSTDTAYMELSSLRSEDTAVYYCATPIYGAREAWFAYWGQGTLVTVSS VL: DIQMTQSPSSLSASVGDRVTITCTASSSVSSSYLHWYQQKPGKAPKLLIYRTSNLASGVPSRFSGSGSGTDFTLTISSLQPEDFATYYCHQYYRSPPTFGGGTKVEIK",EC50,[1],0.09 nM
same,EC50,[2],2.9 nM
